T1: AtGL3 (F177I) (Arabidopsis thaliana, UniProt Q9FN69 1-637, F177I)
T1 sequence: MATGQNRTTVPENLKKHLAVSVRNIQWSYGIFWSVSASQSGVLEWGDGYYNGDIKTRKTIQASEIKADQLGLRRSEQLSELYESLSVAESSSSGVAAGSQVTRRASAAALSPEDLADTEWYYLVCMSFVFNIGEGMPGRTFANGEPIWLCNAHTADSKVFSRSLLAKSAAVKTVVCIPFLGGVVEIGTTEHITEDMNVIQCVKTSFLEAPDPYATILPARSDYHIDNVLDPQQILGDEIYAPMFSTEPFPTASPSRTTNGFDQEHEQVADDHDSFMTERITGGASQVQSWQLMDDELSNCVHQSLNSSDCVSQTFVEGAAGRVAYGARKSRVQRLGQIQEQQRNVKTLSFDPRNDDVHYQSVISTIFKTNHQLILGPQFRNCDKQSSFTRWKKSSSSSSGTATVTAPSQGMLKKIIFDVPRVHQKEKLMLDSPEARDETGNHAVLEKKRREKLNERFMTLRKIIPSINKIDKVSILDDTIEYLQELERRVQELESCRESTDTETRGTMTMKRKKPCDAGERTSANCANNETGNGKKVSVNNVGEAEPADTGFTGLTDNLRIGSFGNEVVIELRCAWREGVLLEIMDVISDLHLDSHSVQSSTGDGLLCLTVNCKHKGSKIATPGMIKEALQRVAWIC


Target: T1, AtGL3 (F177I)
Assay: pull-down

Row | Binder | percent reduction of binding against wild-type AtGL3 [%]
1 | AtTT2 (natural protein) MGKRATTSVRREELNRGAWTDHEDKILRDYITTHGEGKWSTLPNQAGLKRCGKSCRLRWKNYLRPGIKRGNISSDEEELIIRLHNLLGNRWSLIAGRLPGRTDNEIKNHWNSNLRKRLPKTQTKQPKRIKHSTNNENNVCVIRTKAIRCSKTLLFSDLSLQKKSSTSPLPLKEQEMDQGGSSLMGDLEFDFDRIHSEFHFPDLMDFDGLDCGNVTSLVSSNEILGELVPAQGNLDLNRPFTSCHHRGDDEDWLRDFTC | 30
2 | AtPAP1 (natural protein) MEGSSKGLRKGAWTTEEDSLLRQCINKYGEGKWHQVPVRAGLNRCRKSCRLRWLNYLKPSIKRGKLSSDEVDLLLRLHRLLGNRWSLIAGRLPGRTANDVKNYWNTHLSKKHEPCCKIKMKKRDITPIPTTPALKNNVYKPRPRSFTVNNDCNHLNAPPKVDVNPPCLGLNINNVCDNSIIYNKDKKKDQLVNNLIDGDNMWLEKFLEESQEVDILVPEATTTEKGDTLAFDVDQLWSLFDGETVKFD | 30
3 | AtWER (natural protein) MRKKVSSSGDEGNNEYKKGLWTVEEDKILMDYVKAHGKGHWNRIAKKTGLKRCGKSCRLRWMNYLSPNVKRGNFTEQEEDLIIRLHKLLGNRWSLIAKRVPGRTDNQVKNYWNTHLSKKLGIKDQKTKQSNGDIVYQINLPNPTETSEETKISNIVDNNNILGDEIQEDHQGSNYLSSLWVHEDEFELSTLTNMMDFIDGHCF | 30
4 | AtPAP2 (natural protein) MEGSSKGLRKGAWTAEEDSLLRLCIDKYGEGKWHQVPLRAGLNRCRKSCRLRWLNYLKPSIKRGRLSNDEVDLLLRLHKLLGNRWSLIAGRLPGRTANDVKNYWNTHLSKKHESSCCKSKMKKKNIISPPTTPVQKIGVFKPRPRSFSVNNGCSHLNGLPEVDLIPSCLGLKKNNVCENSITCNKDDEKDDFVNNLMNGDNMWLENLLGENQEADAIVPEATTAEHGATLAFDVEQLWSLFDGETVELD | 30
5 | AtGL1 (natural protein) MRIRRRDEKENQEYKKGLWTVEEDNILMDYVLNHGTGQWNRIVRKTGLKRCGKSCRLRWMNYLSPNVNKGNFTEQEEDLIIRLHKLLGNRWSLIAKRVPGRTDNQVKNYWNTHLSKKLVGDYSSAVKTTGEDDDSPPSLFITAATPSSCHHQQENIYENIAKSFNGVVSASYEDKPKQELAQKDVLMATTNDPSHYYGNNALWVHDDDFELSSLVMMNFASGDVEYCL | 30
6 | AtMYB61 (natural protein) not shown | 30

— publication PMC6598095 (Journal of Experimental Botany, 2019)
